Laboratory results taken from patent publication US20250320281A1.

How the values were obtained:
[1] = target: envelope of aMLV pseudovirus (negative control); test: cell-based or functional assay
[2] = target: HIV-1 Env of pseudovirus isolate MGRM-G-004 (HIV-1); test: cell-based or functional assay
[3] = target: HIV-1 Env of pseudovirus isolate MGRM-G-027 (HIV-1); test: cell-based or functional assay
[4] = target: HIV-1 Env of pseudovirus isolate MGRM-G-019 (HIV-1); test: cell-based or functional assay
[5] = target: HIV-1 Env of pseudovirus isolate MGRM-G-006 (HIV-1); test: cell-based or functional assay
[6] = target: HIV-1 Env of pseudovirus isolate MGRM-G-001 (HIV-1); test: cell-based or functional assay
[7] = target: HIV-1 Env of pseudovirus isolate MGRM-G-014 (HIV-1); test: cell-based or functional assay
[8] = target: HIV-1 Env of pseudovirus isolate MGRM-G-015 (HIV-1); test: cell-based or functional assay
[9] = target: HIV-1 Env of pseudovirus isolate MGRM-G-011 (HIV-1); test: cell-based or functional assay
[10] = target: HIV-1 Env of pseudovirus isolate MGRM-G-013 (HIV-1); test: cell-based or functional assay
[11] = target: HIV-1 Env of pseudovirus isolate MGRM-G-017 (HIV-1); test: cell-based or functional assay
[12] = target: HIV-1 Env of pseudovirus isolate MGRM-G-009 (HIV-1); test: cell-based or functional assay
[13] = target: HIV-1 Env of pseudovirus isolate MGRM-G-016 (HIV-1); test: cell-based or functional assay
WT JR-FL gp120 (HIV-1) = test: ELISA, antigen-coated wells
[14] = target: HIV-1 94UG103 Env (pseudovirus) (HIV-1); test: cell-based or functional assay
[15] = target: HIV-1 92RW020 Env (pseudovirus) (HIV-1); test: cell-based or functional assay
[16] = target: HIV-1 MGRM-C-028 Env (pseudovirus) (HIV-1); test: cell-based or functional assay
[17] = target: HIV-1 93IN905 Env (pseudovirus) (HIV-1); test: cell-based or functional assay
[18] = target: HIV-1 NL43 Env (pseudovirus) (HIV-1); test: cell-based or functional assay
[19] = target: HIV-1 APV6 Env (pseudovirus) (HIV-1); test: cell-based or functional assay
[20] = target: HIV-1 92UG024 Env (pseudovirus) (HIV-1); test: cell-based or functional assay
[21] = target: HIV-1 MGRM-C-027 Env (pseudovirus) (HIV-1); test: cell-based or functional assay
[22] = target: HIV-1 MGRM-A-010 Env (pseudovirus) (HIV-1); test: cell-based or functional assay
[23] = target: HIV-1 CMU02 Env (pseudovirus) (HIV-1); test: cell-based or functional assay
[24] = target: HIV-1 92TH021 Env (pseudovirus) (HIV-1); test: cell-based or functional assay
[25] = target: HIV-1 92UG005 Env (pseudovirus) (HIV-1); test: cell-based or functional assay
[26] = target: HIV-1 MGRM-D-018 Env (pseudovirus) (HIV-1); test: cell-based or functional assay
[27] = target: HIV-1 JRCSF Env (pseudovirus) (HIV-1) (UniProt P20871); test: cell-based or functional assay
[28] = target: HIV-1 MGRM-C-026 Env (pseudovirus) (HIV-1); test: cell-based or functional assay

Sequence of 5345_I01 (PGT-137) (antibody) (VH): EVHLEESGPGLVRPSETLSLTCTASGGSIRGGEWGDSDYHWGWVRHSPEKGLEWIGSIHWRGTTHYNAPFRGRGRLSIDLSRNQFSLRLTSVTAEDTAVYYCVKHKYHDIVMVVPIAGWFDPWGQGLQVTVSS
Sequence of 5345_I01 (PGT-137) (antibody) (VL): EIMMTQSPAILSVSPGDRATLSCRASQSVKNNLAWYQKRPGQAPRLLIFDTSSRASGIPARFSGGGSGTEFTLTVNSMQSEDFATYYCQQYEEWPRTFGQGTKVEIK

In the case of 5345_I01 (PGT-137) (antibody), the IC50 (µg/mL), pseudovirus neutralization [1] was over 50 µg/mL, the IC50 (µg/mL), pseudovirus neutralization [2] was over 50 µg/mL and the IC50 (µg/mL), pseudovirus neutralization [3] was 0.228 µg/mL. For the same substance, the IC50 (µg/mL), pseudovirus neutralization [4] was 0.126 µg/mL, the IC50 (µg/mL), pseudovirus neutralization [5] was over 50 µg/mL and the IC50 (µg/mL), pseudovirus neutralization [6] was 41.7 µg/mL. It also gave an IC50 (µg/mL), pseudovirus neutralization [7] of over 50 µg/mL, an IC50 (µg/mL), pseudovirus neutralization [8] of over 50 µg/mL and an IC50 (µg/mL), pseudovirus neutralization [9] of over 50 µg/mL. For the same substance, the IC50 (µg/mL), pseudovirus neutralization [10] was over 50 µg/mL, the IC50 (µg/mL), pseudovirus neutralization [11] was 34.9 µg/mL and the IC50 (µg/mL), pseudovirus neutralization [12] was over 50 µg/mL. It also gave an IC50 (µg/mL), pseudovirus neutralization [13] of over 50 µg/mL and an EC50 (WT JR-FL gp120 (HIV-1)) of 0.1 µg/mL.
5147_N06 (PGT-130) (antibody) showed a Neutralization by PGT-130, IC50 [14] of 0.635 µg/mL, a Neutralization by PGT-130, IC80 [14] of over 10 µg/mL and a Neutralization by PGT-130, IC90 [14] of over 10 µg/mL. For the same substance, the Neutralization by PGT-130, IC95 [14] was over 10 µg/mL, the neutralization IC50 (pseudovirus) [14] was 0.635 µg/mL and the IC50 (µg/mL), pseudovirus neutralization [1] was over 50 µg/mL. For the same substance, the Neutralization by PGT-130, IC50 [15] was 0.014 µg/mL, the Neutralization by PGT-130, IC80 [15] was 0.508 µg/mL and the Neutralization by PGT-130, IC90 [15] was 3.68 µg/mL. For the same substance, the Neutralization by PGT-130, IC95 [15] was over 10 µg/mL, the neutralization IC50 (pseudovirus) [15] was 0.014 µg/mL and the Neutralization by PGT-130, IC50 [16] was over 10 µg/mL. The Neutralization by PGT-130, IC80 [16] was over 10 µg/mL, the Neutralization by PGT-130, IC90 [16] was over 10 µg/mL and the Neutralization by PGT-130, IC95 [16] was over 10 µg/mL. For the same substance, the neutralization IC50 (pseudovirus) [16] was over 10 µg/mL, the Neutralization by PGT-130, IC50 [17] was 0.0182 µg/mL and the Neutralization by PGT-130, IC80 [17] was 0.272 µg/mL. It also gave a Neutralization by PGT-130, IC90 [17] of 1.31 µg/mL, a Neutralization by PGT-130, IC95 [17] of 5.48 µg/mL and a neutralization IC50 (pseudovirus) [17] of 0.0182 µg/mL. For the same substance, the IC50 (µg/mL), pseudovirus neutralization [2] was over 50 µg/mL, the IC50 (µg/mL), pseudovirus neutralization [3] was 4.14 µg/mL and the Neutralization by PGT-130, IC50 [18] was over 10 µg/mL. For the same substance, the Neutralization by PGT-130, IC80 [18] was over 10 µg/mL, the Neutralization by PGT-130, IC90 [18] was over 10 µg/mL and the Neutralization by PGT-130, IC95 [18] was over 10 µg/mL. It also gave a neutralization IC50 (pseudovirus) [18] of over 10 µg/mL, an IC50 (µg/mL), pseudovirus neutralization [4] of 27.9 µg/mL and a Neutralization by PGT-130, IC50 [19] of over 10 µg/mL. The Neutralization by PGT-130, IC80 [19] was over 10 µg/mL, the Neutralization by PGT-130, IC90 [19] was over 10 µg/mL and the Neutralization by PGT-130, IC95 [19] was over 10 µg/mL. It also gave a neutralization IC50 (pseudovirus) [19] of over 10 µg/mL, an IC50 (µg/mL), pseudovirus neutralization [5] of over 50 µg/mL and an IC50 (µg/mL), pseudovirus neutralization [6] of 0.0198 µg/mL. It also gave an IC50 (µg/mL), pseudovirus neutralization [7] of 2.23 µg/mL, a Neutralization by PGT-130, IC50 [20] of over 10 µg/mL and a Neutralization by PGT-130, IC80 [20] of over 10 µg/mL. For the same substance, the Neutralization by PGT-130, IC90 [20] was over 10 µg/mL, the Neutralization by PGT-130, IC95 [20] was over 10 µg/mL and the neutralization IC50 (pseudovirus) [20] was over 10 µg/mL. The IC50 (µg/mL), pseudovirus neutralization [8] was over 50 µg/mL, the Neutralization by PGT-130, IC50 [21] was 0.0052 µg/mL and the Neutralization by PGT-130, IC80 [21] was 0.0318 µg/mL. It also gave a Neutralization by PGT-130, IC90 [21] of 0.106 µg/mL, a Neutralization by PGT-130, IC95 [21] of 0.464 µg/mL and a neutralization IC50 (pseudovirus) [21] of 0.0052 µg/mL. The IC50 (µg/mL), pseudovirus neutralization [9] was over 50 µg/mL, the IC50 (µg/mL), pseudovirus neutralization [10] was over 50 µg/mL and the Neutralization by PGT-130, IC50 [22] was 0.0054 µg/mL. The Neutralization by PGT-130, IC80 [22] was 0.0251 µg/mL, the Neutralization by PGT-130, IC90 [22] was 0.0643 µg/mL and the Neutralization by PGT-130, IC95 [22] was 0.164 µg/mL. The neutralization IC50 (pseudovirus) [22] was 0.0054 µg/mL, the IC50 (µg/mL), pseudovirus neutralization [11] was over 50 µg/mL and the Neutralization by PGT-130, IC50 [23] was over 10 µg/mL. For the same substance, the Neutralization by PGT-130, IC80 [23] was over 10 µg/mL, the Neutralization by PGT-130, IC90 [23] was over 10 µg/mL and the Neutralization by PGT-130, IC95 [23] was over 10 µg/mL. The neutralization IC50 (pseudovirus) [23] was over 10 µg/mL, the Neutralization by PGT-130, IC50 [24] was 0.0082 µg/mL and the Neutralization by PGT-130, IC80 [24] was 0.0261 µg/mL. It also gave a Neutralization by PGT-130, IC90 [24] of 0.0513 µg/mL, a Neutralization by PGT-130, IC95 [24] of 0.0963 µg/mL and a neutralization IC50 (pseudovirus) [24] of 0.0082 µg/mL. It also gave an IC50 (µg/mL), pseudovirus neutralization [12] of over 50 µg/mL, a Neutralization by PGT-130, IC50 [25] of 0.474 µg/mL and a Neutralization by PGT-130, IC80 [25] of over 10 µg/mL. It also gave a Neutralization by PGT-130, IC90 [25] of over 10 µg/mL, a Neutralization by PGT-130, IC95 [25] of over 10 µg/mL and a neutralization IC50 (pseudovirus) [25] of 0.474 µg/mL. The Neutralization by PGT-130, IC50 [26] was 0.0378 µg/mL, the Neutralization by PGT-130, IC80 [26] was 0.289 µg/mL and the Neutralization by PGT-130, IC90 [26] was 2.31 µg/mL. For the same substance, the Neutralization by PGT-130, IC95 [26] was over 10 µg/mL, the neutralization IC50 (pseudovirus) [26] was 0.0378 µg/mL and the Neutralization by PGT-130, IC50 [27] was 0.0089 µg/mL. The Neutralization by PGT-130, IC80 [27] was 0.0317 µg/mL, the Neutralization by PGT-130, IC90 [27] was 0.0669 µg/mL and the Neutralization by PGT-130, IC95 [27] was 0.134 µg/mL. For the same substance, the neutralization IC50 (pseudovirus) [27] was 0.0089 µg/mL, the Neutralization by PGT-130, IC50 [28] was 0.0173 µg/mL and the Neutralization by PGT-130, IC80 [28] was 0.263 µg/mL. The Neutralization by PGT-130, IC90 [28] was 1.32 µg/mL, the Neutralization by PGT-130, IC95 [28] was 6.13 µg/mL and the neutralization IC50 (pseudovirus) [28] was 0.0173 µg/mL. For the same substance, the IC50 (µg/mL), pseudovirus neutralization [13] was over 50 µg/mL and the EC50 (WT JR-FL gp120 (HIV-1)) was 0.2 µg/mL.
Work on 5343_B08 (PGT-135) (antibody) yielded an IC50 (neutralizing activity, pseudovirus) [14] of over 10 µg/mL, an IC50 (µg/mL), pseudovirus neutralization [1] of over 50 µg/mL and a neutralization IC50 (pseudovirus) [15] of 0.157 µg/mL. For the same substance, the IC50 (neutralizing activity, pseudovirus) [16] was 2.16 µg/mL, the IC50 (neutralizing activity, pseudovirus) [17] was 0.0183 µg/mL and the IC50 (µg/mL), pseudovirus neutralization [2] was over 50 µg/mL. For the same substance, the IC50 (µg/mL), pseudovirus neutralization [3] was 0.062 µg/mL, the IC50 (neutralizing activity, pseudovirus) [18] was 6.79 µg/mL and the IC50 (µg/mL), pseudovirus neutralization [4] was 0.145 µg/mL. For the same substance, the IC50 (neutralizing activity, pseudovirus) [19] was over 10 µg/mL, the IC50 (µg/mL), pseudovirus neutralization [5] was over 50 µg/mL and the IC50 (µg/mL), pseudovirus neutralization [6] was 0.393 µg/mL. It also gave an IC50 (µg/mL), pseudovirus neutralization [7] of over 50 µg/mL, an IC50 (neutralizing activity, pseudovirus) [20] of 0.0139 µg/mL and an IC50 (µg/mL), pseudovirus neutralization [8] of over 50 µg/mL. For the same substance, the IC50 (neutralizing activity, pseudovirus) [21] was over 10 µg/mL, the IC50 (µg/mL), pseudovirus neutralization [9] was over 50 µg/mL and the IC50 (µg/mL), pseudovirus neutralization [10] was over 50 µg/mL. The IC50 (neutralizing activity, pseudovirus) [22] was over 10 µg/mL, the IC50 (µg/mL), pseudovirus neutralization [11] was 0.137 µg/mL and the IC50 (neutralizing activity, pseudovirus) [23] was over 10 µg/mL. For the same substance, the IC50 (neutralizing activity, pseudovirus) [24] was over 10 µg/mL, the IC50 (µg/mL), pseudovirus neutralization [12] was over 50 µg/mL and the IC50 (neutralizing activity, pseudovirus) [25] was over 10 µg/mL. The IC50 (neutralizing activity, pseudovirus) [26] was 0.0433 µg/mL, the IC50 (neutralizing activity, pseudovirus) [27] was 0.113 µg/mL and the IC50 (neutralizing activity, pseudovirus) [28] was 0.0123 µg/mL. It also gave an IC50 (µg/mL), pseudovirus neutralization [13] of over 50 µg/mL and an EC50 (WT JR-FL gp120 (HIV-1)) of 0.1 µg/mL.
